# Assay results taken from the supplement of paper PMC9112550, “Optimization of the antimicrobial peptide Bac7 by deep mutational scanning” (BMC Biology, 2022).
# System: Escherichia coli TOP10
# Test: shrunken log2 fold change of peptide-encoding DNA abundance (4.5 h post-induction vs induction); higher = less antimicrobial activity (less host growth inhibition)
# Conditions: time post-induction: 4.5 h; library: site-saturation at positions 5, 18, 19, 20
# 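Further: peptides expressed intracellularly from a pBAD plasmid library in pooled LB shake-flask culture, induced with 0.3% L-arabinose, DNA abundance read by NGS, three biological replicates, DESeq2 with apeglm shrinkage.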
row,Sequence,shrunken log2 fold change
1,RRIRTRPPRLPRPRPRPMCIPRP,-0.649
2,RRIRWRPPRLPRPRPRPCKFPRP,-0.24
3,RRIRFRPPRLPRPRPRPAEPPRP,0.137
4,RRIRFRPPRLPRPRPRPRKQPRP,0.415
5,RRIRNRPPRLPRPRPRPYNVPRP,-0.526
6,RRIRYRPPRLPRPRPRPVITPRP,-0.241
7,RRIRGRPPRLPRPRPRPDYAPRP,-0.0775
8,RRIRLRPPRLPRPRPRPRGVPRP,0.494
9,RRIRERPPRLPRPRPRPAPQPRP,0.31
10,RRIRTRPPRLPRPRPRPPNPPRP,0.442
11,RRIRVRPPRLPRPRPRPYPQPRP,-0.349
12,RRIRARPPRLPRPRPRPWSHPRP,-0.186
13,RRIRPRPPRLPRPRPRPNTTPRP,-0.131
14,RRIRPRPPRLPRPRPRPQWFPRP,-0.0872
15,RRIRNRPPRLPRPRPRPVYCPRP,-0.688
16,RRIRGRPPRLPRPRPRPEIMPRP,1.33
17,RRIRTRPPRLPRPRPRPTGMPRP,0.13
18,RRIRFRPPRLPRPRPRPDPTPRP,0.0215
19,RRIRKRPPRLPRPRPRPEKAPRP,0.0283
20,RRIRPRPPRLPRPRPRPGEHPRP,-0.133
21,RRIRQRPPRLPRPRPRPFEQPRP,0.106
22,RRIRIRPPRLPRPRPRPFWWPRP,0.0783
23,RRIRARPPRLPRPRPRPTFVPRP,0.203
24,RRIRCRPPRLPRPRPRPQSMPRP,-0.419
25,RRIRDRPPRLPRPRPRPSMSPRP,-0.33

row,Sequence,shrunken log2 fold change
1,RRIRLRPPRLPRPRPRPIYRPRP,-0.0597
2,RRIRPRPPRLPRPRPRPGMEPRP,0.367
3,RRIRHRPPRLPRPRPRPMTLPRP,-0.0135
4,RRIRNRPPRLPRPRPRPLVDPRP,0.0463
5,RRIRNRPPRLPRPRPRPEQGPRP,0.111
6,RRIRARPPRLPRPRPRPMMWPRP,0.617
7,RRIRMRPPRLPRPRPRPMCKPRP,0.00898
8,RRIRLRPPRLPRPRPRPNKYPRP,-0.742
9,RRIRIRPPRLPRPRPRPSVTPRP,-0.781
10,RRIRTRPPRLPRPRPRPDFLPRP,-0.169
11,RRIRIRPPRLPRPRPRPCYVPRP,-0.411
12,RRIRCRPPRLPRPRPRPDFTPRP,-0.0655
13,RRIRPRPPRLPRPRPRPILAPRP,0.273
14,RRIRLRPPRLPRPRPRPLPNPRP,0.11
15,RRIRLRPPRLPRPRPRPKPSPRP,0.432
16,RRIRPRPPRLPRPRPRPPASPRP,0.559
17,RRIRARPPRLPRPRPRPIWGPRP,0.302
18,RRIRMRPPRLPRPRPRPINPPRP,-0.0782
19,RRIRTRPPRLPRPRPRPKRSPRP,0.207
20,RRIRTRPPRLPRPRPRPVFPPRP,-0.339
21,RRIRARPPRLPRPRPRPRPSPRP,0.622
22,RRIRPRPPRLPRPRPRPCRRPRP,0.117
23,RRIRGRPPRLPRPRPRPQLLPRP,0.253
24,RRIRCRPPRLPRPRPRPEQRPRP,0.23
25,RRIRKRPPRLPRPRPRPQRSPRP,0.392

row,Sequence,shrunken log2 fold change
1,RRIRSRPPRLPRPRPRPSSPPRP,-0.561
2,RRIRARPPRLPRPRPRPDVWPRP,0.342
3,RRIRMRPPRLPRPRPRPMPRPRP,0.561
4,RRIRKRPPRLPRPRPRPKTSPRP,0.489
5,RRIRARPPRLPRPRPRPEDGPRP,1.48
6,RRIRLRPPRLPRPRPRPFNPPRP,-0.349
7,RRIRHRPPRLPRPRPRPPARPRP,1.66
8,RRIRQRPPRLPRPRPRPWTNPRP,-0.00183
9,RRIRWRPPRLPRPRPRPDRIPRP,0.082
10,RRIRDRPPRLPRPRPRPHDCPRP,-0.0662
11,RRIRIRPPRLPRPRPRPNMHPRP,-0.805
12,RRIRQRPPRLPRPRPRPWIFPRP,-0.0561
13,RRIRKRPPRLPRPRPRPEMSPRP,0.325
14,RRIRGRPPRLPRPRPRPHLMPRP,-0.0148
15,RRIRQRPPRLPRPRPRPGCMPRP,0.175
16,RRIRSRPPRLPRPRPRPLNHPRP,-0.554
17,RRIRNRPPRLPRPRPRPWTFPRP,-0.0614
18,RRIRFRPPRLPRPRPRPVSPPRP,-0.172
19,RRIRRRPPRLPRPRPRPIVFPRP,0.00406
20,RRIRYRPPRLPRPRPRPPCFPRP,-0.242
21,RRIRWRPPRLPRPRPRPVDPPRP,0.158
22,RRIRHRPPRLPRPRPRPILLPRP,-0.211
23,RRIRWRPPRLPRPRPRPHLKPRP,-0.0706
24,RRIRFRPPRLPRPRPRPRRFPRP,0.0577
25,RRIRCRPPRLPRPRPRPRPGPRP,0.733
